Laboratory results published in patent US20260022155A1.

Target: HVEM expressed on cell lines (KTPloCD86A2 HVEM; K562CD19/HVEM) (UniProt Q92956)
Assay: cell-based or functional assay
Conditions: scale: times higher than CD19-28z electroporated T cells

Chain of UniProt Q92956 (Q92956 39-283 limits assumed): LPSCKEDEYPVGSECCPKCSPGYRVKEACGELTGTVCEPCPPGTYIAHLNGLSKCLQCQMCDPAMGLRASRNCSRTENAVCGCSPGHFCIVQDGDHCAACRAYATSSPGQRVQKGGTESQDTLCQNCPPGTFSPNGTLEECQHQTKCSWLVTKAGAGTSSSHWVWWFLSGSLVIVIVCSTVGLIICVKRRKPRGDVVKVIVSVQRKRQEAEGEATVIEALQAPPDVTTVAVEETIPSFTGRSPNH

Substance: BTLA-CD28 CCR (receptor)
- IL-2 production (ELISA) of T cells co-electroporated with CD19z and BTLA-CD28 CCR: 4
